Measured values reported in the supplement of paper PMC9112550, “Optimization of the antimicrobial peptide Bac7 by deep mutational scanning” (BMC Biology, 2022).

System: Escherichia coli TOP10
Assay: shrunken log2 fold change of peptide-encoding DNA abundance (4.5 h post-induction vs induction); higher = less antimicrobial activity (less host growth inhibition)
Conditions: time post-induction: 4.5 h; library: site-saturation at positions 5, 18, 19, 20
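Also: peptides expressed intracellularly from a pBAD plasmid library in pooled LB shake-flask culture, induced with 0.3% L-arabinose, DNA abundance read by NGS, three biological replicates, DESeq2 with apeglm shrinkage.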

Sequence | shrunken log2 fold change
RRIRDRPPRLPRPRPRPEWVPRP | -0.0272
RRIRDRPPRLPRPRPRPEYCPRP | -0.0172
RRIRDRPPRLPRPRPRPFARPRP | 0.579
RRIRDRPPRLPRPRPRPFCKPRP | -0.164
RRIRDRPPRLPRPRPRPFCLPRP | 0.0132
RRIRDRPPRLPRPRPRPFCNPRP | -0.0411
RRIRDRPPRLPRPRPRPFDYPRP | -0.224
RRIRDRPPRLPRPRPRPFEAPRP | 0.277
RRIRDRPPRLPRPRPRPFGGPRP | -0.0275
RRIRDRPPRLPRPRPRPFGSPRP | 0.0468
RRIRDRPPRLPRPRPRPFHAPRP | -0.108
RRIRDRPPRLPRPRPRPFHWPRP | -0.0944
RRIRDRPPRLPRPRPRPFKIPRP | -0.249
RRIRDRPPRLPRPRPRPFMPPRP | -0.124
RRIRDRPPRLPRPRPRPFMTPRP | -0.185
RRIRDRPPRLPRPRPRPFNYPRP | -0.048
RRIRDRPPRLPRPRPRPFQFPRP | -0.324
RRIRDRPPRLPRPRPRPFQMPRP | -0.57
RRIRDRPPRLPRPRPRPFQVPRP | -0.609
RRIRDRPPRLPRPRPRPFRDPRP | -0.00232
RRIRDRPPRLPRPRPRPFRFPRP | -0.0342
RRIRDRPPRLPRPRPRPFRHPRP | -0.125
RRIRDRPPRLPRPRPRPFRTPRP | -0.0508
RRIRDRPPRLPRPRPRPFRWPRP | 0.317
RRIRDRPPRLPRPRPRPFSAPRP | -0.36
RRIRDRPPRLPRPRPRPFSDPRP | -0.016
RRIRDRPPRLPRPRPRPFSEPRP | -0.0447

Sequence | shrunken log2 fold change
RRIRDRPPRLPRPRPRPFSFPRP | -0.763
RRIRDRPPRLPRPRPRPFSKPRP | -0.488
RRIRDRPPRLPRPRPRPFSNPRP | -0.0771
RRIRDRPPRLPRPRPRPFTCPRP | -0.00884
RRIRDRPPRLPRPRPRPFVMPRP | 0.0243
RRIRDRPPRLPRPRPRPFWMPRP | 0.0871
RRIRDRPPRLPRPRPRPFWNPRP | -0.28
RRIRDRPPRLPRPRPRPFYCPRP | -0.0803
RRIRDRPPRLPRPRPRPGACPRP | 0.23
RRIRDRPPRLPRPRPRPGCKPRP | 0.0398
RRIRDRPPRLPRPRPRPGCSPRP | 0.278
RRIRDRPPRLPRPRPRPGDFPRP | -0.017
RRIRDRPPRLPRPRPRPGDMPRP | 0.164
RRIRDRPPRLPRPRPRPGEHPRP | 0.0372
RRIRDRPPRLPRPRPRPGGEPRP | 1.41
RRIRDRPPRLPRPRPRPGGHPRP | 0.188
RRIRDRPPRLPRPRPRPGGPPRP | 0.247
RRIRDRPPRLPRPRPRPGIAPRP | 0.37
RRIRDRPPRLPRPRPRPGIIPRP | -0.171
RRIRDRPPRLPRPRPRPGIRPRP | -0.174
RRIRDRPPRLPRPRPRPGIWPRP | 0.252
RRIRDRPPRLPRPRPRPGKAPRP | 0.00543
RRIRDRPPRLPRPRPRPGKKPRP | -0.00968
RRIRDRPPRLPRPRPRPGKLPRP | 0.0495
RRIRDRPPRLPRPRPRPGKYPRP | -0.124
RRIRDRPPRLPRPRPRPGMNPRP | 0.164
RRIRDRPPRLPRPRPRPGNFPRP | -0.0885
